Assay results from paper PMC3544317 (2014).

T1: FVa (FVa2) (Homo sapiens, UniProt P12259)
T1 chain 1: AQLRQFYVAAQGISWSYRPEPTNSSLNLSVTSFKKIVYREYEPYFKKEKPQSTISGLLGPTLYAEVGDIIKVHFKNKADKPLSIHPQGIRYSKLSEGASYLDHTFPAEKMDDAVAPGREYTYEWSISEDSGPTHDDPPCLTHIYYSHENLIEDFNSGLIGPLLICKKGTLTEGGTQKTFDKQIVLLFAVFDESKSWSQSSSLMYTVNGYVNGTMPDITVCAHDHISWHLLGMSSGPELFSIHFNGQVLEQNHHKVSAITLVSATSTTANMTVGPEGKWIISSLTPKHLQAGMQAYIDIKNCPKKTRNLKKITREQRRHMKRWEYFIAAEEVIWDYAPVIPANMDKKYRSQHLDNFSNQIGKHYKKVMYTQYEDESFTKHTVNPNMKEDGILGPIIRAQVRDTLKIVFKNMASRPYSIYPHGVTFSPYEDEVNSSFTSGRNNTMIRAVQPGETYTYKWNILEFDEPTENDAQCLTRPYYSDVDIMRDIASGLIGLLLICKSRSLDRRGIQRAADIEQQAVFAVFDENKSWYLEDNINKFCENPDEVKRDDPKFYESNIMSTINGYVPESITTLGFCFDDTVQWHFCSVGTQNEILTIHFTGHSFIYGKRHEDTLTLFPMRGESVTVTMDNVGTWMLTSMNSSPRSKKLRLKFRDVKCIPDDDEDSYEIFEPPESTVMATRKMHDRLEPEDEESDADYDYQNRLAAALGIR
T1 chain 2: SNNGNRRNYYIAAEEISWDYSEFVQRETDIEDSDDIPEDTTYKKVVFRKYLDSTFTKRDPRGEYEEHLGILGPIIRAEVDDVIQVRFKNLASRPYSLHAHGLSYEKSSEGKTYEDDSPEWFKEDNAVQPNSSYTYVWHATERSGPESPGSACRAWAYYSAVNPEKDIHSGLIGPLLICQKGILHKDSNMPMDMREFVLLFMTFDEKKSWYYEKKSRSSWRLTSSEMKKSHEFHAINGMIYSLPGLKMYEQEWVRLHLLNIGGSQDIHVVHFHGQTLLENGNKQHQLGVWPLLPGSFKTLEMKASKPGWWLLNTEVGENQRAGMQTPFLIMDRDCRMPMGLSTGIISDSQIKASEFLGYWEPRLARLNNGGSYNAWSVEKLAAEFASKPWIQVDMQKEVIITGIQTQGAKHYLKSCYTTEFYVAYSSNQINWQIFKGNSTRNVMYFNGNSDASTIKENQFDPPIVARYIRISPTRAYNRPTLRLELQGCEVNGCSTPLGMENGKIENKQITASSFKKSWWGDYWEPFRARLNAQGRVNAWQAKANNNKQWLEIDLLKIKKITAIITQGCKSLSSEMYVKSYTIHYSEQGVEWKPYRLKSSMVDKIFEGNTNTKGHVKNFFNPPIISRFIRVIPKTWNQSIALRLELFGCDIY

T2: FXa (Homo sapiens, UniProt P00742)
T2 chain 1: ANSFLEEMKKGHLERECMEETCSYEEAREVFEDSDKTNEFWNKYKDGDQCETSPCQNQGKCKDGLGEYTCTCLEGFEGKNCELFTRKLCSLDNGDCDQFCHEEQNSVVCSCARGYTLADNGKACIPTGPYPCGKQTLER
T2 chain 2: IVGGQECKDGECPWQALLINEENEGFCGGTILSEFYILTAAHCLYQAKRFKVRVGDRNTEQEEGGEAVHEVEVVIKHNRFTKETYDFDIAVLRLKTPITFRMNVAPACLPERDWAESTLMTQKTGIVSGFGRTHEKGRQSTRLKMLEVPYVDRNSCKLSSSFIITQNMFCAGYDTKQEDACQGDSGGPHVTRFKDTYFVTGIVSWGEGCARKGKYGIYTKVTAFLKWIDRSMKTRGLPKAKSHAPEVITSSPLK

T3: DEGR-FXa (Homo sapiens, UniProt P00742)
T3 chain 1: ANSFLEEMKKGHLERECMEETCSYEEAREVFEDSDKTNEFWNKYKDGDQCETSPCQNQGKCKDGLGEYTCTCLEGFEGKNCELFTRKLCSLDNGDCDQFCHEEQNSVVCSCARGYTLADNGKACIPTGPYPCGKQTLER
T3 chain 2: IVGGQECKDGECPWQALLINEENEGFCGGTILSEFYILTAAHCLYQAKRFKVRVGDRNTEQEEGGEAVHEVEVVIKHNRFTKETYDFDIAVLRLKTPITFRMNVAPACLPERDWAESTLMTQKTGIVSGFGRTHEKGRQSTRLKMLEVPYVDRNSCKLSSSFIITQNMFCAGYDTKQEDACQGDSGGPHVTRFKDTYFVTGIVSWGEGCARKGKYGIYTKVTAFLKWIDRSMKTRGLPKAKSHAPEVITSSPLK


Tests used:
FVa (FVa2) [1] = target: T1, FVa (FVa2); experiment: global fit of activity
FVa (FVa2) [2] = target: T1, FVa (FVa2); experiment: prothrombinase activity titration
FXa = target: T2, FXa; experiment: prothrombin activation rate vs FXa
FVa (FVa2) [3] = target: T1, FVa (FVa2); experiment: prothrombinase activity titration
FVa (FVa2) [4] = target: T1, FVa (FVa2); experiment: global fit of activity, dimer competition model
FVa (FVa2) [5] = target: T1, FVa (FVa2); experiment: prothrombinase activity titration
DEGR-FXa = target: T3, DEGR-FXa; experiment: fluorescence of active-site-labeled FXa

| Binder | Kd (FVa (FVa2) [1]) [nM] | Kd (FVa (FVa2) [2]) [nM] | Kd (FXa) [nM] | Kd (FVa (FVa2) [3]) [nM] | Kd (FVa (FVa2) [4]) [nM] | Kd (FVa (FVa2) [5]) [nM] | Kd (DEGR-FXa) [nM] |
| --- | --- | --- | --- | --- | --- | --- | --- |
| FXa (protein, C6PS, 5 mM Ca2+) chain 1: ANSFLEEMKKGHLERECMEETCSYEEAREVFEDSDKTNEFWNKYKDGDQCETSPCQNQGKCKDGLGEYTCTCLEGFEGKNCELFTRKLCSLDNGDCDQFCHEEQNSVVCSCARGYTLADNGKACIPTGPYPCGKQTLER chain 2: IVGGQECKDGECPWQALLINEENEGFCGGTILSEFYILTAAHCLYQAKRFKVRVGDRNTEQEEGGEAVHEVEVVIKHNRFTKETYDFDIAVLRLKTPITFRMNVAPACLPERDWAESTLMTQKTGIVSGFGRTHEKGRQSTRLKMLEVPYVDRNSCKLSSSFIITQNMFCAGYDTKQEDACQGDSGGPHVTRFKDTYFVTGIVSWGEGCARKGKYGIYTKVTAFLKWIDRSMKTRGLPKAKSHAPEVITSSPLK | 0.43 | 43 | 16 | 2.2 | 0.32 | 20 | – |
| DEGR-FXa (protein, DEGR active-site label, C6PS, 3 mM Ca2+) chain 1: ANSFLEEMKKGHLERECMEETCSYEEAREVFEDSDKTNEFWNKYKDGDQCETSPCQNQGKCKDGLGEYTCTCLEGFEGKNCELFTRKLCSLDNGDCDQFCHEEQNSVVCSCARGYTLADNGKACIPTGPYPCGKQTLER chain 2: IVGGQECKDGECPWQALLINEENEGFCGGTILSEFYILTAAHCLYQAKRFKVRVGDRNTEQEEGGEAVHEVEVVIKHNRFTKETYDFDIAVLRLKTPITFRMNVAPACLPERDWAESTLMTQKTGIVSGFGRTHEKGRQSTRLKMLEVPYVDRNSCKLSSSFIITQNMFCAGYDTKQEDACQGDSGGPHVTRFKDTYFVTGIVSWGEGCARKGKYGIYTKVTAFLKWIDRSMKTRGLPKAKSHAPEVITSSPLK | – | – | – | – | – | – | 600 |
| FXa (protein, C6PS, 3 mM Ca2+) chain 1: ANSFLEEMKKGHLERECMEETCSYEEAREVFEDSDKTNEFWNKYKDGDQCETSPCQNQGKCKDGLGEYTCTCLEGFEGKNCELFTRKLCSLDNGDCDQFCHEEQNSVVCSCARGYTLADNGKACIPTGPYPCGKQTLER chain 2: IVGGQECKDGECPWQALLINEENEGFCGGTILSEFYILTAAHCLYQAKRFKVRVGDRNTEQEEGGEAVHEVEVVIKHNRFTKETYDFDIAVLRLKTPITFRMNVAPACLPERDWAESTLMTQKTGIVSGFGRTHEKGRQSTRLKMLEVPYVDRNSCKLSSSFIITQNMFCAGYDTKQEDACQGDSGGPHVTRFKDTYFVTGIVSWGEGCARKGKYGIYTKVTAFLKWIDRSMKTRGLPKAKSHAPEVITSSPLK | – | 8 | – | 1.7 | – | – | – |
